In the supplement of paper PMC10126150:
± gives the standard deviation of the averaged measurements.

system: ATP; test: switch fluorescence ratio, 500 uM ATP over buffer (Cy3 cluster intensity, sum of 5 cycles each) (fold (ratio)); higher = stronger signal-on switching upon ATP binding; sequences stand for … in TCGTCGGCAGCGTCAGATGTGTATAAGAGACAGTTTTTTTTTTTTTTTTTTTTTTTTT…TC; conditions: aptamer strand: ATP DNA aptamer (quencher-CACCTGGGGGAGTATTGCGGAGGAAGG + anchor), 100 nM annealed; ATP concentration: 500 uM
Method in brief: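 The quencher-labelled ATP aptamer, at 100 nM, was annealed to Cy3-labelled switching-strand clusters on a modified Illumina MiSeq flow-cell. The clusters were imaged in selection buffer, then after 15 min with 500 uM ATP at 22 °C, and this buffer/ATP cycle ran five times with NaOH stripping and re-annealing between runs. Per-cluster fluorescence ratios, summed target-cycle over summed buffer-cycle Cy3 intensity, were averaged per switch-domain sequence. Clusters outside 100-1000 RFU were excluded.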
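Note: ATP exposure 15 min at 22 °C before imaging.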

| Sequence | switch fluorescence ratio |
| --- | --- |
| AATAAGAGAC | 1.01 ± 0.043 |
| TATGGGGATG | 1 ± 0.024 |
| TACAAAATGG | 0.997 ± 0.012 |
| AGGAGCGGTA | 1.1 ± 0.12 |
| TGCCTTTGTA | 0.963 ± 0.013 |
| CTATAATGAG | 0.9963 ± 0.0014 |
| TTTTAACAAT | 1.021 ± 0.0098 |
| CAATGGTTAG | 0.998 ± 0.026 |
| TTTCTTTGGG | 0.998 ± 0.043 |
| TATTCAGCTA | 1.07 ± 0.099 |
| TATCAAAAAT | 0.994 ± 0.013 |
| AGAACTGTGA | 0.9889 ± 0.0037 |
| GGGCTAGGTT | 0.986 ± 0.031 |
| TAAAGAGGGT | 1 ± 0.033 |
| TTTGACGCGT | 1.02 ± 0.016 |
| GGGTTAGGTT | 1.01 ± 0.064 |
| GCGCTTTTCT | 0.9784 ± 0.0063 |
| GGAGGGGTGC | 1.04 ± 0.032 |
| AAGGCATCAG | 0.9915 ± 0.0045 |
| GGGGTTGCCG | 0.992 ± 0.034 |
| TTTTGTCGTG | 0.95 ± 0.033 |
| ACCGCATTGT | 1.96 ± 0.23 |
| CGCGGGTTCA | 1.03 ± 0.037 |
| TTGGGTGGTT | 0.9815 ± 0.0026 |
| AAACTTATAA | 0.991 ± 0.029 |
| AGACGCGCCA | 1.05 ± 0.087 |

| Sequence | switch fluorescence ratio |
| --- | --- |
| GTTTTCAAAG | 0.973 ± 0.037 |
| TTTAACGATA | 1.07 ± 0.015 |
| ACCGGATGG | 1.03 ± 0.027 |
| TTCGTTTTCG | 0.991 ± 0.029 |
| AACTTGGGGA | 0.9657 ± 0.0061 |
| ATGGTGGAGG | 1.01 ± 0.024 |
| CAAGATCGGC | 1.01 ± 0.079 |
| GCATCACGTA | 1.17 ± 0.024 |
| CCAGGCTATG | 1.012 ± 0.0047 |
| TCGTGTCGG | 0.98 ± 0.021 |
| GTCGATTTAT | 0.986 ± 0.045 |
| GCAGGGGTTT | 1.25 ± 0.48 |
| TTTGTTGGGC | 0.981 ± 0.028 |
| TGGGAAGACA | 1.06 ± 0.092 |
| CGTGACCTTT | 1.02 ± 0.048 |
| ACGGATGGCT | 0.984 ± 0.023 |
| ACTTGATGGG | 0.992 ± 0.045 |
| GCTATAAAAC | 1.03 ± 0.077 |
| TGTAATACGT | 1.17 ± 0.019 |
| ATGATGCTGG | 1.02 ± 0.077 |
| CAGTAGAGGG | 0.977 ± 0.028 |
| AAAGGGAGAA | 0.971 ± 0.011 |
| ACTGGCAGC | 1.05 ± 0.017 |
| AGTGGTTTTT | 0.9946 ± 0.0055 |
| TGGGGGTATT | 1.05 ± 0.16 |
| CAGAGTAACA | 0.973 ± 0.03 |

| Sequence | switch fluorescence ratio |
| --- | --- |
| TGTTGCGTGG | 0.992 ± 0.012 |
| GGGAGCTGCG | 1 ± 0.018 |
| ATGTAATTTC | 0.9987 ± 0.0036 |
| ATGGGCTGGA | 1.04 ± 0.015 |
| GCTGTATTTA | 0.974 ± 0.024 |
| TTTAGGGAAT | 1 ± 0.013 |
| CGGATGGCGA | 1.03 ± 0.021 |
| ATAAGTGGA | 0.997 ± 0.062 |
| TGTCTGGGGG | 1.01 ± 0.025 |
| TTTATGTGTT | 0.984 ± 0.021 |
| CAGAGTGGCA | 1.02 ± 0.027 |
| TGATGCAGAG | 1.02 ± 0.018 |
| TCAATTAGGC | 1.05 ± 0.027 |
| TGAGGGACAT | 1.02 ± 0.046 |
| ATTTTTGTCT | 0.983 ± 0.06 |
| TTTTGGGAGG | 1 ± 0.054 |
| TATCGTCTAC | 1.015 ± 0.0033 |
| GAGATGTTT | 0.969 ± 0.04 |
| TGGGAATGAC | 2.01 ± 1.4 |
| CGGGGAGGAG | 1.02 ± 0.056 |
| TCATGGCCAG | 1.04 ± 0.078 |
| GTTGGATGGA | 0.9966 ± 0.0062 |
| ATATTAGTTT | 1 ± 0.011 |
| GGTGGAAATC | 1.09 ± 0.16 |
| AAACTGGGGG | 1.012 ± 0.0032 |
| TTATGGGAA | 1.04 ± 0.038 |

| Sequence | switch fluorescence ratio |
| --- | --- |
| TTGGTTAGTT | 0.981 ± 0.027 |
| AACTGGACTT | 1.11 ± 0.042 |
| AGTATTGGGC | 1.008 ± 0.01 |
| CAATGGAGAG | 1 ± 0.018 |
| CTCATACGGG | 1.05 ± 0.036 |
| GCGGATTCGG | 0.9551 ± 0.0048 |
| GTCTTTTAGG | 0.9981 ± 0.0086 |
| TAATCGATGG | 1.009 ± 0.0012 |
| GCTGGGGGCT | 1.008 ± 0.0076 |
| GTTAAATGGT | 1 ± 0.031 |
| GGTCCAGGGC | 1.08 ± 0.04 |
| CTGAATACGT | 1.009 ± 0.0078 |
| CAGGGACGGG | 1.03 ± 0.018 |
| TTGGTGGTT | 0.9809 ± 0.0089 |
| TGTTTGGTAA | 0.981 ± 0.024 |
| TGACCCGGGT | 1.018 ± 0.0072 |
| TTTGGTCCTT | 1.029 ± 0.0088 |
| AGTGTACTCG | 1.04 ± 0.056 |
| ATTCGTTAGA | 0.999 ± 0.011 |
| TTGTTGTGGT | 0.987 ± 0.032 |
| GTGTAGAGGG | 1 ± 0.048 |
| TAGGGGTCCT | 1.01 ± 0.046 |
| CGGCCCGCGA | 1.94 ± 0.96 |
| GGTGCGGCTT | 1.007 ± 0.0072 |
| ATCATCCGTT | 1.04 ± 0.025 |
| AGGTTATACG | 1.01 ± 0.022 |

| Sequence | switch fluorescence ratio |
| --- | --- |
| CGTGAGAGCA | 1.01 ± 0.035 |
| CTCTATTGGG | 0.993 ± 0.014 |
| AGCGTTTCGC | 0.996 ± 0.013 |
| TCAGGGGGTT | 1.05 ± 0.037 |
| ATGCTGGGTA | 0.997 ± 0.026 |
| GTACGAGGGG | 0.992 ± 0.016 |
| CCGTTGGTTT | 0.9937 ± 0.0088 |
| ATCTGAACGT | 1.02 ± 0.074 |
| TATGTTTCGG | 0.98 ± 0.011 |
| GGAATGGAAC | 1.01 ± 0.024 |
| TGTTGTTTGT | 1.02 ± 0.026 |
| TGCTTAAAGT | 0.9807 ± 0.0054 |
| TCCTAAACGG | 0.988 ± 0.03 |
| CAGGAGAGCG | 0.9934 ± 0.0077 |
| GAGGGGTGGA | 0.996 ± 0.015 |
| GATTGGTGCG | 0.976 ± 0.015 |
| GGATGTTTAG | 1.02 ± 0.021 |
| AAAATGCATC | 1.04 ± 0.038 |
| TCTAGGCCTC | 1.019 ± 0.0038 |
| TGCGGACAA | 0.9948 ± 0.0043 |
| GAGTTTATGT | 1.01 ± 0.022 |
| GAGGAATTGG | 0.979 ± 0.012 |
| ATATTTGATT | 0.977 ± 0.021 |
| TGGGGGGTCG | 1.03 ± 0.051 |
| TCAATCATAT | 0.982 ± 0.033 |
| CATGAGGGAG | 0.996 ± 0.019 |

| Sequence | switch fluorescence ratio |
| --- | --- |
| AGGTTTCTCT | 0.966 ± 0.031 |
| TTACTTTCCT | 1.12 ± 0.086 |
| GGTTCAGGGC | 1.02 ± 0.047 |
| GGGGCATTAT | 1.06 ± 0.074 |
| TCTCTGTCGA | 1.4 ± 0.11 |
| GGCTGGGCTT | 0.99 ± 0.04 |
| AAATGTGCTG | 1 ± 0.024 |
| ACTTTAGATT | 1.04 ± 0.0053 |
| GTGGCCGGGT | 1.03 ± 0.0047 |
| GAGCCAGGGA | 1.001 ± 0.0029 |
| TCGGAAAAAT | 0.966 ± 0.0099 |
| AGGGAGAAGA | 1.005 ± 0.0077 |
| TGTAAGAGTG | 0.983 ± 0.021 |
| ATTCGTGGG | 1.01 ± 0.017 |
| TCGAGGAGTT | 1.012 ± 0.01 |
| TCATTTATGG | 0.999 ± 0.023 |
| TAGGTCTACG | 1.02 ± 0.019 |
| AATCAGGACA | 0.9959 ± 0.0076 |
| GCAGCACGCG | 1.03 ± 0.031 |
| AAATGGTGGG | 1.13 ± 0.16 |
| ATTGGGTAGT | 0.9765 ± 0.0084 |
| GCATAGGGGG | 1.03 ± 0.081 |
| GATAGATAGA | 0.9957 ± 0.002 |
